Test results from publication PMC9482650, “Quantitative fragmentomics allow affinity mapping of interactomes” (Nature Communications, 2022).

T1: NHERF3_3, Q5T2W1
T1 sequence (Q5T2W1 238-333, limits assumed, looked up): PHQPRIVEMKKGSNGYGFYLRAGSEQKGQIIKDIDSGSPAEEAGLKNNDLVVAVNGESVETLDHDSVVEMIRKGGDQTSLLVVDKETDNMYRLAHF

T2: LRRC7, Q96NW7
T2 sequence (Q96NW7 1440-1537, limits assumed, looked up): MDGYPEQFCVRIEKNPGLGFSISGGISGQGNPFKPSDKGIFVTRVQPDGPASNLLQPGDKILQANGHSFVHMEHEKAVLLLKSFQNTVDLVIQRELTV

T3: CARD11, Q9BXL7
T3 sequence (Q9BXL7 662-765, limits assumed, looked up): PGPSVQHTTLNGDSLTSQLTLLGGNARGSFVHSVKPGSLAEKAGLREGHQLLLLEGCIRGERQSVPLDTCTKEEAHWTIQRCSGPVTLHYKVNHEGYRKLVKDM

T4: PARD3B_1, Q8TEW8
T4 sequence (Q8TEW8 196-299, limits assumed, looked up): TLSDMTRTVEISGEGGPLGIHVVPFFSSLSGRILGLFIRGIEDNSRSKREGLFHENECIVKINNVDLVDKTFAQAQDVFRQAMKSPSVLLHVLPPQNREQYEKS

T5: MPP6, Q9NZW5
T5 sequence (Q9NZW5 125-219, limits assumed, looked up): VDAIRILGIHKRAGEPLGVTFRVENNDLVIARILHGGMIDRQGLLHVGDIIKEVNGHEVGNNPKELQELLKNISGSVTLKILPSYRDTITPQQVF

T6: SNTG2, Q9NY99
T6 sequence (Q9NY99 68-166, limits assumed, looked up): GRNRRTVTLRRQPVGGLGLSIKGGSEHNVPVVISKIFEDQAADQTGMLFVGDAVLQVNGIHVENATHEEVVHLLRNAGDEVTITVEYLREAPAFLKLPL

T7: NHERF3_1, Q5T2W1
T7 sequence (Q5T2W1 4-100, limits assumed, looked up): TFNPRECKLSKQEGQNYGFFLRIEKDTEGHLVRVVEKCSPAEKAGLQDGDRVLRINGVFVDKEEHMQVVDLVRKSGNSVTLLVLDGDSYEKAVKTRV

T8: SNTG1, Q9NSN8
T8 sequence (Q9NSN8 52-150, limits assumed, looked up): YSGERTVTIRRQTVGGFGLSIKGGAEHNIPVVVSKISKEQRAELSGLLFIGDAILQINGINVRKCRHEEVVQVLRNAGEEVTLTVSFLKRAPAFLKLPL

T9: APBA1_2, Q02410
T9 sequence (Q02410 742-832, limits assumed, looked up): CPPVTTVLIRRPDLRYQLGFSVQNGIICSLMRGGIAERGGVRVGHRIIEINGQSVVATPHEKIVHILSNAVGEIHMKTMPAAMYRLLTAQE

B1: TYRP1, P17643 (peptide)
chain: KLQNPNQSVV
B2: ATRNL1, Q5VV63 (peptide)
chain: HLSTRQGTCV
B3: PRKN, O60260 (peptide)
chain: VCMGDHWFDV

These binders were tested against T1, NHERF3_3, Q5T2W1 (assay: holdup assay). Settings: plain residues with an end cap or a label only (N-terminal biotin on a linker: ado-ado).
Design: key: below the threshold = too weak to quantify, mostly under pKd 3.1 to 4

pKd | Binder
below the threshold | B1
below the threshold | B2
below the threshold | B3

These binders were tested against T2, LRRC7, Q96NW7 (assay: holdup assay). Settings: plain residues with an end cap or a label only (N-terminal biotin on a linker: ado-ado).
Design: key: below the threshold = too weak to quantify, mostly under pKd 3.1 to 4

pKd | Binder
below the threshold | B1
3.63 | B2
3.75 | B3

These binders were tested against T3, CARD11, Q9BXL7 (assay: holdup assay). Settings: plain residues with an end cap or a label only (N-terminal biotin on a linker: ado-ado).
Design: key: below the threshold = too weak to quantify, mostly under pKd 3.1 to 4

pKd | Binder
below the threshold | B1
below the threshold | B2
below the threshold | B3

What follows are binders tested against T4, PARD3B_1, Q8TEW8 (assay: holdup assay). Settings: plain residues with an end cap or a label only (N-terminal biotin on a linker: ado-ado).
Design: key: below the threshold = too weak to quantify, mostly under pKd 3.1 to 4

pKd | Binder
below the threshold | B1
below the threshold | B2
4.78 | B3

The binders below were run against DLG2_2, Q15700 (assay: holdup assay). Settings: plain residues with an end cap or a label only (N-terminal biotin on a linker: ado-ado).
Design: key: below the threshold = too weak to quantify, mostly under pKd 3.1 to 4

Sequence of DLG2_2, Q15700 (Q15700 189-283): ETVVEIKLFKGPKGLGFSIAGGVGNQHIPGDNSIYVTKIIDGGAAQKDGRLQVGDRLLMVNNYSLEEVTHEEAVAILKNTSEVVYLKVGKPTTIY

pKd | Binder
3.86 | B1
4.21 | B2
below the threshold | B3

Each binder was assayed against T5, MPP6, Q9NZW5 (assay: holdup assay). Settings: plain residues with an end cap or a label only (N-terminal biotin on a linker: ado-ado).
Design: key: below the threshold = too weak to quantify, mostly under pKd 3.1 to 4

pKd | Binder
below the threshold | B1
below the threshold | B2
4.01 | B3

The binders below were run against GRASP, Q7Z6J2 (assay: holdup assay). Settings: plain residues with an end cap or a label only (N-terminal biotin on a linker: ado-ado).
Design: key: below the threshold = too weak to quantify, mostly under pKd 3.1 to 4

Sequence of GRASP, Q7Z6J2 (Q7Z6J2 96-193): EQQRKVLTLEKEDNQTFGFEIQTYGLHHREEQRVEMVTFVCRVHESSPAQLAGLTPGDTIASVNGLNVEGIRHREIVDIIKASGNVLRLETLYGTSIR

pKd | Binder
4 | B1
4.28 | B2
3.53 | B3

The binders below were run against T6, SNTG2, Q9NY99 (assay: holdup assay). Settings: plain residues with an end cap or a label only (N-terminal biotin on a linker: ado-ado).
Design: key: below the threshold = too weak to quantify, mostly under pKd 3.1 to 4

pKd | Binder
3.64 | B1
3.67 | B2
below the threshold | B3

The binders below were run against DLG5_1, Q8TDM6 (assay: holdup assay). Settings: plain residues with an end cap or a label only (N-terminal biotin on a linker: ado-ado).
Design: key: below the threshold = too weak to quantify, mostly under pKd 3.1 to 4

Sequence of DLG5_1, Q8TDM6 (Q8TDM6 617-713): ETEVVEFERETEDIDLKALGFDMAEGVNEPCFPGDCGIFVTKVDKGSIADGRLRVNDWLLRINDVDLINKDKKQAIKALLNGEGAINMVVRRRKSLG

pKd | Binder
below the threshold | B1
below the threshold | B2
below the threshold | B3

These binders were tested against GRIP2_6, Q9C0E4 (assay: holdup assay). Settings: plain residues with an end cap or a label only (N-terminal biotin on a linker: ado-ado).
Design: key: below the threshold = too weak to quantify, mostly under pKd 3.1 to 4

Sequence of GRIP2_6, Q9C0E4 (Q9C0E4 648-740): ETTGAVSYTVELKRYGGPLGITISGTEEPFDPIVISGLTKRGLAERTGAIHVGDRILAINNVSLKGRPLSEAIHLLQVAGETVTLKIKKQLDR

pKd | Binder
below the threshold | B1
below the threshold | B2
3.79 | B3

The binders below were run against MAGI2_3, Q86UL8 (assay: holdup assay). Settings: plain residues with an end cap or a label only (N-terminal biotin on a linker: ado-ado).
Design: key: below the threshold = too weak to quantify, mostly under pKd 3.1 to 4

Sequence of MAGI2_3, Q86UL8 (Q86UL8 600-682): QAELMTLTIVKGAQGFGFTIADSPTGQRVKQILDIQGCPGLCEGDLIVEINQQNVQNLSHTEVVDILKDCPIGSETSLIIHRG

pKd | Binder
below the threshold | B1
below the threshold | B2
below the threshold | B3

Each binder was assayed against IL16_1, Q14005 (assay: holdup assay). Settings: plain residues with an end cap or a label only (N-terminal biotin on a linker: ado-ado).
Design: key: below the threshold = too weak to quantify, mostly under pKd 3.1 to 4

Sequence of IL16_1, Q14005 (Q14005 210-306): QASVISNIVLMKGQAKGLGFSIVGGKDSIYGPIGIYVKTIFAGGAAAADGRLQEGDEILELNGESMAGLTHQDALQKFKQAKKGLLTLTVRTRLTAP

pKd | Binder
3.94 | B1
3.63 | B2
below the threshold | B3

Each binder was assayed against T7, NHERF3_1, Q5T2W1 (assay: holdup assay). Settings: plain residues with an end cap or a label only (N-terminal biotin on a linker: ado-ado).
Design: key: below the threshold = too weak to quantify, mostly under pKd 3.1 to 4

pKd | Binder
below the threshold | B1
3.87 | B2
below the threshold | B3

The binders below were run against PTPN3, P26045 (assay: holdup assay). Settings: plain residues with an end cap or a label only (N-terminal biotin on a linker: ado-ado).
Design: key: below the threshold = too weak to quantify, mostly under pKd 3.1 to 4

Sequence of PTPN3, P26045 (P26045 505-587): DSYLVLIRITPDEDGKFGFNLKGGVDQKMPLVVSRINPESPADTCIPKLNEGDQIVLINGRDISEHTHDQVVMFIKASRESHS

pKd | Binder
below the threshold | B1
4.54 | B2
3.49 | B3

Each binder was assayed against T8, SNTG1, Q9NSN8 (assay: holdup assay). Settings: plain residues with an end cap or a label only (N-terminal biotin on a linker: ado-ado).
Design: key: below the threshold = too weak to quantify, mostly under pKd 3.1 to 4

pKd | Binder
3.47 | B1
below the threshold | B2
3.81 | B3

These binders were tested against SCRIB_1, Q14160 (assay: holdup assay). Settings: plain residues with an end cap or a label only (N-terminal biotin on a linker: ado-ado).
Design: key: below the threshold = too weak to quantify, mostly under pKd 3.1 to 4

Sequence of SCRIB_1, Q14160 (Q14160 718-814): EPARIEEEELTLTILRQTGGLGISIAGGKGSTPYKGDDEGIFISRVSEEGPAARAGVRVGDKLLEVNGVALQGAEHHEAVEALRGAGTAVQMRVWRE

pKd | Binder
3.52 | B1
3.66 | B2
3.55 | B3

What follows are binders tested against SCRIB_3, Q14160 (assay: holdup assay). Settings: plain residues with an end cap or a label only (N-terminal biotin on a linker: ado-ado).
Design: key: below the threshold = too weak to quantify, mostly under pKd 3.1 to 4

Sequence of SCRIB_3, Q14160 (Q14160 999-1103): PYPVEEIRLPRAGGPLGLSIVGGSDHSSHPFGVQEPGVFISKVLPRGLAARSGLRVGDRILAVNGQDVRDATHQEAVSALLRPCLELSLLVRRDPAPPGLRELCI

pKd | Binder
below the threshold | B1
4.13 | B2
3.98 | B3

What follows are binders tested against PICK1, Q9NRD5 (assay: holdup assay). Settings: plain residues with an end cap or a label only (N-terminal biotin on a linker: ado-ado).
Design: key: below the threshold = too weak to quantify, mostly under pKd 3.1 to 4

Sequence of PICK1, Q9NRD5 (Q9NRD5 17-115): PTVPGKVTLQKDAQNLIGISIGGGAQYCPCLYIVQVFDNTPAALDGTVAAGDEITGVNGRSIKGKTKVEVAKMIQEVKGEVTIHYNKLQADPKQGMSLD

pKd | Binder
4.19 | B1
below the threshold | B2
below the threshold | B3

These binders were tested against AHNAK1, Q09666 (assay: holdup assay). Settings: plain residues with an end cap or a label only (N-terminal biotin on a linker: ado-ado).
Design: key: below the threshold = too weak to quantify, mostly under pKd 3.1 to 4

Sequence of AHNAK1, Q09666 (Q09666 4-100): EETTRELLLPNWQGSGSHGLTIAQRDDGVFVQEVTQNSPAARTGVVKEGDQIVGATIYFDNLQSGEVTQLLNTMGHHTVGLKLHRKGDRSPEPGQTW

pKd | Binder
below the threshold | B1
below the threshold | B2
below the threshold | B3

What follows are binders tested against IL16_4, Q14005 (assay: holdup assay). Settings: plain residues with an end cap or a label only (N-terminal biotin on a linker: ado-ado).
Design: key: below the threshold = too weak to quantify, mostly under pKd 3.1 to 4

Sequence of IL16_4, Q14005 (Q14005 1229-1329): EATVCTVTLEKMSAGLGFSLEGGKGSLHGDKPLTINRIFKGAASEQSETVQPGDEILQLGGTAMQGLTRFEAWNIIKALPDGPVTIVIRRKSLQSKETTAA

pKd | Binder
below the threshold | B1
below the threshold | B2
below the threshold | B3

The binders below were run against LDB3, O75112 (assay: holdup assay). Settings: plain residues with an end cap or a label only (N-terminal biotin on a linker: ado-ado).
Design: key: below the threshold = too weak to quantify, mostly under pKd 3.1 to 4

Sequence of LDB3, O75112 (O75112 1-94): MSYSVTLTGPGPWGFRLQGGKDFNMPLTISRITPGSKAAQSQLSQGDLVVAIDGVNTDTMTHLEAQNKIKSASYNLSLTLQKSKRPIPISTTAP

pKd | Binder
below the threshold | B1
below the threshold | B2
3.9 | B3

These binders were tested against TJP1_3, Q07157 (assay: holdup assay). Settings: plain residues with an end cap or a label only (N-terminal biotin on a linker: ado-ado).
Design: key: below the threshold = too weak to quantify, mostly under pKd 3.1 to 4

Sequence of TJP1_3, Q07157 (Q07157 416-512): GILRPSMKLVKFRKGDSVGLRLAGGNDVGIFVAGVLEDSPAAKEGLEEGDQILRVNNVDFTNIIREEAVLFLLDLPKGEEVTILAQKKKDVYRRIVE

pKd | Binder
below the threshold | B1
below the threshold | B2
below the threshold | B3

The binders below were run against T9, APBA1_2, Q02410 (assay: holdup assay). Settings: plain residues with an end cap or a label only (N-terminal biotin on a linker: ado-ado).
Design: key: below the threshold = too weak to quantify, mostly under pKd 3.1 to 4

pKd | Binder
3.56 | B1
4.62 | B2
3.92 | B3

The binders below were run against LNX1_1, Q8TBB1 (assay: holdup assay). Settings: plain residues with an end cap or a label only (N-terminal biotin on a linker: ado-ado).
Design: key: below the threshold = too weak to quantify, mostly under pKd 3.1 to 4

Sequence of LNX1_1, Q8TBB1 (Q8TBB1 261-371): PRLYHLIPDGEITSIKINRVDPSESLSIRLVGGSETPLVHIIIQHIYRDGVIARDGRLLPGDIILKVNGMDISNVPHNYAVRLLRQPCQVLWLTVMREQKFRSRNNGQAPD

pKd | Binder
3.86 | B1
4.34 | B2
3.94 | B3

What follows are binders tested against LIMK2, P53671 (assay: holdup assay). Settings: plain residues with an end cap or a label only (N-terminal biotin on a linker: ado-ado).
Design: key: below the threshold = too weak to quantify, mostly under pKd 3.1 to 4

Sequence of LIMK2, P53671 (P53671 143-248): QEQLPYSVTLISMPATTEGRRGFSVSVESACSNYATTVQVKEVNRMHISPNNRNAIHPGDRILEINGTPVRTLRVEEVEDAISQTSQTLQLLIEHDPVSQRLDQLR

pKd | Binder
below the threshold | B1
below the threshold | B2
below the threshold | B3

Each binder was assayed against Inadl_3, Q8NI35 (assay: holdup assay). Settings: plain residues with an end cap or a label only (N-terminal biotin on a linker: ado-ado).
Design: key: below the threshold = too weak to quantify, mostly under pKd 3.1 to 4

Sequence of Inadl_3, Q8NI35 (Q8NI35 359-469): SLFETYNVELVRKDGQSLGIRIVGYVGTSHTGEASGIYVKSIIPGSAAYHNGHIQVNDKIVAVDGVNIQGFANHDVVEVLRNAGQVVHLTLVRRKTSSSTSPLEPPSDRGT

pKd | Binder
below the threshold | B1
below the threshold | B2
4.9 | B3

What follows are binders tested against DLG1_3, Q12959 (assay: holdup assay). Settings: plain residues with an end cap or a label only (N-terminal biotin on a linker: ado-ado).
Design: key: below the threshold = too weak to quantify, mostly under pKd 3.1 to 4

Sequence of DLG1_3, Q12959 (Q12959 457-571): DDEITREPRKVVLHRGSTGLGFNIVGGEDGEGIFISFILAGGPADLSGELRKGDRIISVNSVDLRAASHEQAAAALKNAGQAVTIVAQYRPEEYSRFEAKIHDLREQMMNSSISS

pKd | Binder
3.56 | B1
3.58 | B2
below the threshold | B3

What follows are binders tested against NHERF4_4, Q86UT5 (assay: holdup assay). Settings: plain residues with an end cap or a label only (N-terminal biotin on a linker: ado-ado).
Design: key: below the threshold = too weak to quantify, mostly under pKd 3.1 to 4

Sequence of NHERF4_4, Q86UT5 (Q86UT5 464-550): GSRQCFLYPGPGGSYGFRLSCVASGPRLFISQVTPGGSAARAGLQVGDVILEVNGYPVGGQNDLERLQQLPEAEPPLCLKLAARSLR

pKd | Binder
below the threshold | B1
3.94 | B2
4.3 | B3
